Reference: patent US20150284743A1, “METHODS FOR THE ENZYMATIC PRODUCTION OF ISOPRENE FROM ISOPRENOL” (GLOBAL BIOENERGIES, priority 2012, published 2015)

Assays:
[1] = substrate: CC(C)=CCO; assay: Prenol phosphorylation, pyruvate kinase/lactate dehydrogenase coupled assay (ADP release), E. coli kinase; type: biochemical, Escherichia coli; conditions: other: prenol, 5 mM ATP, pH 7.5, 37° C., enzyme 0.5 mg/ml
Protocol: (§1) The genes encoding the enzymes of interest were cloned in the pET 25b(+) vector (Novagen). Nucleotide sequences encoding a chloroplast transit peptide in plant terpene synthases were removed, resulting in DNA sequences encoding the mature proteins only. […] Competent E. coli BL21(DE3) cells (Novagen) were transformed with this vector by heat shock. The transformed cells were grown with shaking (160 rpm) on ZYM-5052 auto-induction medium (Studier FW, Prot. Exp. Pur. 41, (2005), 207-234) for 6 h at 37° C. and protein expression was continued at 28° C. or 20° C. overnight (approximately 16 h). The cells were collected by centrifugation at 4° C., 10,000 rpm for 20 min and the pellets were frozen at −80° C.
(§2) The pellets from 200 ml of culture cells were thawed on ice and resuspended in 5 ml of Na2HPO4 pH 8 containing 300 mM NaCl, 5 mM MgCl2 and 1 mM DTT. Twenty microliters of lysonase (Novagen) were added. Cells were incubated 10 minutes at room temperature and then returned to ice for 20 minutes. Cell lysis was completed by sonication for 3×15 seconds. The bacterial extracts were then clarified by centrifugation at 4° C., 10,000 rpm for 20 min. The clarified bacterial lysates were loaded on PROTINO-1000 Ni-TED column (Macherey-Nagel) allowing adsorption of 6-His tagged proteins. Columns were washed and the enzymes of interest were eluted with 4 ml of 50 mM Na2HPO4 pH 8 containing 300 mM NaCl, 5 mM MgCl2, 1 mM DTT, 250 mM imidazole. […] Protein concentrations were quantified according to the Bradford method. […]
(§3) The purified 4-methyl-5-(2-hydroxyethyl) thiazole kinases from Escherichia coli, Bacillus subtilis, Rhizobium leguminosarum were evaluated for their ability to phosphorylate prenol. The release of ADP associated to prenol phosphorylation was quantified using the pyruvate kinase/lactate dehydrogenase coupled assay (FIG. 4). […]
(§4) Each assay was started by the addition of the enzyme at a final concentration 0.5 mg/ml and the decrease of NADH was monitored by following its absorbance at 340 nm. […]

[2] = substrate: C=C(C)CCO; assay: Isoprenol phosphorylation, pyruvate kinase/lactate dehydrogenase coupled assay (ADP release), E. coli kinase; type: biochemical, Escherichia coli; conditions: other: isoprenol 0-40 mM, 5 mM ATP, pH 7.5, 37° C., enzyme 0.025 mg/ml
Protocol: as §1, §2
(§5) The release of ADP that is associated with isoprenol phosphorylation was quantified using the pyruvate kinase/lactate dehydrogenase coupled assay (FIG. 4). The purified 4-methyl-5-(2-hydroxyethyl)thiazole kinases from Escherichia coli, Bacillus subtilis, Rhizobium leguminosarum were thus evaluated for their ability to phosphorylate isoprenol. […]
(§6) Each assay was started by the addition of the enzyme at a final concentration 0.025 mg/ml and the decrease of NADH was monitored by following its absorbance at 340 nm. […]

[3] = Screening for isoprene production from isoprenyl monophosphate with purified terpene synthases; type: biochemical; conditions: 10 mM isoprenyl monophosphate, 37° C., 17 h, GC-FID / GC-MS of headspace
Protocol: The enzymatic assays were carried out under the following conditions at 37° C.:
10 mM isoprenyl monophosphate (Sigma)
2.5 mg of the terpene synthase was added to 0.5 ml of reaction mixture. An enzyme-free control reaction was carried out in parallel. Assays were incubated at 37° C. for 17 h in a 1.5 ml sealed glass vial (Interchim) with shaking. One ml of the headspace phase was then collected and injected into a gas chromatograph Varian 430-GC chromatograph equipped with a flame ionization detector (FID). Nitrogen was used as carrier gas with a flow rate of 30 mL/min. Volatile compounds were chromatographically separated on Rtx-1 column (Restek) using an isothermal mode at 100° C. The enzymatic reaction product was identified by direct comparison with isoprene standard (Sigma). Under these GC conditions, the retention time for isoprene was 3.47 min. […] Gas chromatography-mass spectrometry (GC-MS) was then used to confirm the identity of the product detected by gas chromatography with flame ionization. The samples were analyzed on a Varian 3400Cx gas chromatograph equipped with Varian Saturn 3 mass selective detector. A mass spectrum of isoprene obtained by enzymatic conversion of isoprenyl monophosphate was similar to the one of commercial isoprene (FIG. 8).

[4] = substrate: C=C(C)CCOP(=O)(O)O; assay: Isoprene production from isoprenyl monophosphate, GC/FID; type: biochemical, Eucalyptus globulus; conditions: other: isoprenyl monophosphate 0-150 mM, pH 7.5, 20 mM MgCl2, 37° C., 18 h, enzyme 4 mg/ml
Protocol: as §1
The pellets from 200 ml of culture cells were thawed on ice and resuspended in 5 ml of Na2HPO4 pH 8 containing 300 mM NaCl, 5 mM MgCl2 and 1 mM DTT. […] Protein concentrations were quantified according to the Bradford method. […]
2.5 mg of the terpene synthase was added to 0.5 ml of reaction mixture. […] Gas chromatography-mass spectrometry (GC-MS) was then used to confirm the identity of the product detected by gas chromatography with flame ionization. The samples were analyzed on a Varian 3400Cx gas chromatograph equipped with Varian Saturn 3 mass selective detector. […]
Kinetic parameters of isoprene production were evaluated in the following conditions: […]

[5] = substrate: CC(C)=CCOP(=O)(O)O; assay: purified protein, by the assay type; conditions: other: prenyl monophosphate 0-150 mM, pH 7.5, 20 mM MgCl2, 37° C., 18 h, enzyme 2 mg/ml
[6] = substrate: CC(C)=CCO; assay: Prenol phosphorylation, pyruvate kinase/lactate dehydrogenase coupled assay (ADP release), R. leguminosarum kinase; type: biochemical, Rhizobium leguminosarum; conditions: other: prenol, 5 mM ATP, pH 7.5, 37° C., enzyme 0.5 mg/ml
Protocol: as §1, §2, §3, §4

[7] = substrate: C=C(C)CCO; assay: Isoprenol phosphorylation, pyruvate kinase/lactate dehydrogenase coupled assay (ADP release), R. leguminosarum kinase; type: biochemical, Rhizobium leguminosarum; conditions: other: isoprenol 0-40 mM, 5 mM ATP, pH 7.5, 37° C., enzyme 0.025 mg/ml
Protocol: as §1, §2, §5, §6

[8] = substrate: C=C(C)CCO; assay: Isoprenol phosphorylation, pyruvate kinase/lactate dehydrogenase coupled assay (ADP release), B. subtilis kinase; type: biochemical, Bacillus subtilis; conditions: other: isoprenol 0-40 mM, 5 mM ATP, pH 7.5, 37° C., enzyme 0.025 mg/ml
Protocol: as §1, §2, §5, §6

[9] = substrate: CC(C)=CCO; assay: Prenol phosphorylation, pyruvate kinase/lactate dehydrogenase coupled assay (ADP release), B. subtilis kinase; type: biochemical, Bacillus subtilis; conditions: other: prenol, 5 mM ATP, pH 7.5, 37° C., enzyme 0.5 mg/ml
Protocol: as §1, §2, §3, §4

B1: Escherichia coli 4-methyl-5-(2-hydroxyethyl)thiazole kinase (hydroxyethylthiazole kinase, EC 2.7.1.50) (Escherichia coli K-12) (protein)
chain: MQVDLLGSAQSAHALHLFHQHSPLVHCMTNDVVQTFTANTLLALGASPAMVIETEEASQFAAIASALLINVGTLTQPRAQAMRAAVEQAKSSQTPWTLDPVAVGALDYRRHFCHELLSFKPAAIRGNASEIMALAGIANGGRGVDTTDAAANAIPAAQTLARETGAIVVVTGEMDYVTDGHRIIGIHGGDPLMTKVVGTGCALSAVVAACCALPGDTLENVASACHWMKQAGERAVARSEGPGSFVPHFLDALWQLTQEVQA
[1]
  Km: 3 mM
  kcat: 0.05 s⁻¹
  kcat/Km: 16 M⁻¹ s⁻¹
[2]
  Km: 7.5 mM
  kcat: 1 s⁻¹
  kcat/Km: 130 M⁻¹ s⁻¹

B2: monoterpene synthase from E. globulus: purified monoterpene synthase of Eucalyptus globulus (UniProt Q0PCI4, SEQ ID NO: 6) (protein, listed as Eucalyptus globulus)
chain: MALRLLFTPHLPVLSSRRANGRVRCSASTQISDPQEGRRSANYQPSVWTYNYLQSIVAGEGRQSRREVEQQKEKVQILEEEVRGALNDEKAETFTIFATVDDIQRLGLGDHFEEDISNALRRCVSKGAVFMSLQKSLHGTALGFRLLRQHGYEVSQDVFKIFLDESGSFVKTLGGDVQGVLSLYEASHLAFEEEDILHKARSFAIKHLENLNSDVDKDLQDQVKHELELPLHRRMPLLEARRSIEAYSRREYTNPQILELALTDFNVSQSTLQRDLQEMLGWWNNTGLAKRLSFARDRLIECFFWAVGIAHEPSLSICRKAVTKAFALILVLDDVYDVFGTLEELELFTEAVRRWDLNAVEDLPVYMKLCYLALYNSVNEMAYETLKEKGENVIPYLAKAWYDLCKAFLQEAKWSNSRIIPGVEEYLNNGWVSSSGSVMLIHAYFLASPSIRKEELESLEHYHDLLRLPSLIFRLTNDIASSSAELERGETTNSIRCFMQEKGISELEARECVKEEIDTAWKKMNKYMVDRSTFNQSFVRMTYNLARMAHCVYQDGDAIGSPDDLSWNRVHSLIIKPISPAA
[3]
  Isoprene production from isoprenyl monophosphate: isoprene produced

B3: Eucalyptus globulus monoterpene synthase (UniProt Q0PCI4), SEQ ID NO: 6 (Eucalyptus globulus) (protein)
chain: ASTQISDPQEGRRSANYQPSVWTYNYLQSIVAGEGRQSRREVEQQKEKVQILEEEVRGALNDEKAETFTIFATVDDIQRLGLGDHFEEDISNALRRCVSKGAVFMSLQKSLHGTALGFRLLRQHGYEVSQDVFKIFLDESGSFVKTLGGDVQGVLSLYEASHLAFEEEDILHKARSFAIKHLENLNSDVDKDLQDQVKHELELPLHRRMPLLEARRSIEAYSRREYTNPQILELALTDFNVSQSTLQRDLQEMLGWWNNTGLAKRLSFARDRLIECFFWAVGIAHEPSLSICRKAVTKAFALILVLDDVYDVFGTLEELELFTEAVRRWDLNAVEDLPVYMKLCYLALYNSVNEMAYETLKEKGENVIPYLAKAWYDLCKAFLQEAKWSNSRIIPGVEEYLNNGWVSSSGSVMLIHAYFLASPSIRKEELESLEHYHDLLRLPSLIFRLTNDIASSSAELERGETTNSIRCFMQEKGISELEARECVKEEIDTAWKKMNKYMVDRSTFNQSFVRMTYNLARMAHCVYQDGDAIGSPDDLSWNRVHSLIIKPISPAA
[4]
  Km: 40 mM
  kcat: 1.6e-05 s⁻¹
[5]
  Km: 60 mM
  kcat: 0.00056 s⁻¹

B4: Rhizobium leguminosarum 4-methyl-5-(2-hydroxyethyl)thiazole kinase (hydroxyethylthiazole kinase, EC 2.7.1.50) (Rhizobium johnstonii 3841) (protein)
chain: MQTRTTPGAMLKAMREKPPLVQCITNYVAMNIAANVLLAAGASPAMVHAAEEAGEFAAIASALTINIGTLSTQWIDGMQAAAKAATSAGKPWVLDPVAHYATAFRRNAVAELLALKPTIIRGNASEIIALAGGESRGQGVDSRDPVEQAEGSARWLAERQRAVVAVTGAVDFVTDGERAVRIEGGSALMPQVTALGCSLTCLVGAFAATAPEDIFGATVAALSTFAIAGEEAALGAAGPGSFSWRFLDALAALDAETLDARARISAA
[6]
  Km: 10 mM
  kcat: 0.01 s⁻¹
  kcat/Km: 1 M⁻¹ s⁻¹
[7]
  Km: 10 mM
  kcat: 0.8 s⁻¹
  kcat/Km: 80 M⁻¹ s⁻¹

B5: Bacillus subtilis 4-methyl-5-(2-hydroxyethyl)thiazole kinase (hydroxyethylthiazole kinase, EC 2.7.1.50) (Bacillus subtilis subsp. subtilis str. 168) (protein)
chain: MDAQSAAKCLTAVRRHSPLVHSITNNVVTNFTANGLLALGASPVMAYAKEEVADMAKIAGALVLNIGTLSKESVEAMIIAGKSANEHGVPVILDPVGAGATPFRTESARDIIREVRLAAIRGNAAEIAHTVGVTDWLIKGVDAGEGGGDIIRLAQQAAQKLNTVIAITGEVDVIADTSHVYTLHNGHKLLTKVTGAGCLLTSVVGAFCAVEENPLFAAIAAISSYGVAAQLAAQQTADKGPGSFQIELLNKLSTVTEQDVQEWATIERVTVS
notes: homotrimer
[8]
  Km: 3 mM
  kcat: 0.03 s⁻¹
  kcat/Km: 10 M⁻¹ s⁻¹
[9]
  Km: 3 mM
  kcat: 0.006 s⁻¹
  kcat/Km: 2 M⁻¹ s⁻¹
